Test results published in the DeepSol protein solubility set.

Test: soluble on expression in E. coli; label from the status in PepcDB or PDB records
With “MAKKTKQRRPMGFPPGPPGLPFIGNIYSLAASSELPHVYMRKQSQVYGEIFSLDLGGISTVVLNGYDVVKECLVHQSEIFADRPCLPLFMKMTKMGGLLNSRYGRGWVDHRRLAVNSFRYFGYGQKSFESKILEETKFFNDAIETYKGRPFDFKQLITNAVSNITNLIIFGERFTYEDTDFQHMIELFSENVELAASASVFLYNAFPWIGILPFGKHQQLFRNAAVVYDFLSRLIEKASVNRKPQLPQHFVDAYLDEMDQGKNDPSSTFSKENLIFSVGELIIAGTETTTNVLRWAILFMALYPNIQGQVQKEIDLIMGPNGKPSWDDKCKMPYTEAVLHEVLRFCNIVPLGIFHATSEDAVVRGYSIPKGTTVITNLYSVHFDEKYWRDPEVFHPERFLDSSGYFAKKEALVPFSLGRRHCLGEHLARMEMFLFFTALLQRFHLHFPHELVPDLKPRLGMTLQPQPYLICAERRHHHHHH” the “soluble on expression in E. coli” value was “soluble”.
For “MAKLDFHIVKRIREQIANGGTRVALKHKVAGAWQGITWEQFGQQVDTLSLALLAQGLGVQDKIGIFSNNMPQWTIADFAALQLRGVTVPIYPTNTAAQSAYIIDNADVKVLFVGEQPQFDAAVSIFEQCEQLELIVAMSDDIELGDHDFAISWKDFVAKGDTSHQAELDERLEQAKVDDLLTLIYTSGTTGQPKGVMLDYGNIAAQLEGHDQRLSLSQDDVSLCFLPLSHVFERAWTFYVLYKGATNCYLQDTMQVRDALSEVRPTVMCAVPRFYEKIFSAIHEKVSRAPIHRKIMFTWAVNMGAKMALCHQEKRKPSMMLRKAHA”, the “soluble on expression in E. coli” value was “not soluble”.
For “MAKQELSAREAVTEAKCYLNNAKEILREKGAKTEGYYRDSKYVKMAGDTAYSGVLFVLDHYFGEKAKGRKDVDWYRINLSKEDRKMLDSFTAVYEQLHL”, the “soluble on expression in E. coli” value was “not soluble”.
With “MAKRIKNTTPKQDGFRMPGEFEKQKQIWMLWPWRNDNWRLGAKPAQKAFLEVAEAISEFEPVSLCVPPLQYENALARVSELGSHNIRIIEMTNDDAWIRDCGPTFLVNDKGDLRAVDWEFNAWGGLVDGLYFPWDQDALVARKVCEIEGVDSYKTKDFVLEGGSIHVDGEGTVLVTEMCLLHPSRNPHLTKEDIEDKLKDYLNCVKVLWVKDGIDPYETNGHIDDVACFIRPGEVACIYTDDKEHPFYQEAKAAYDFLSQQTDAKGRPLKVHKMCVTKEPCYLQEAATIDYVEGSIPREEGEMAIASYLNFLIVNGGIILPQYGDENDQLAKQQVQEMFPDRKVVGVRTEEIAYGGGNIHCITQQQPATLEHHHHHH” the “soluble on expression in E. coli” value was “soluble”.
In the case of “MAKRVFIGATGQNCGKTTMSVSLMHLARQKYDRVGFIKPIGPKIEGYNGLTVDMDAILMARTFGLEEDLPLMNPVSLHKNFTRDFLSGKLDCNVLKTKILEAFEILDKKYDFLIIEGAGHGGVGSVIGLSNACVAHTLNAPVIIVTDSGIGSSIDAVHLNLALYEKEDADVRMLLVNKLRADKRESILSFLGKGFPGRPLKISGGFNYSPILANPTLSHIGKLLNLPVHGDPDGQSRIIHHIHLGAASAQRVVDALQESTLIVITSSRDELIVTLSSLYHIPAFREKIVGLVIAGHIPASEISQQILDDSNIPYIRVHDSTANVFTTLMEDVAKITAEDQEKLNWIRANAENEIDFEAIDALLLEHHHHHH”, the “soluble on expression in E. coli” value is reported as “not soluble”.
With “MAKRVVSVSLGSSRRDAAAEVELLGERVLLERRGTDGDFQRALCLIQELDGKVDAIGLGGIDLYLFAGGRRYAIRDALRLKEAAKKTPVVDGSGLKHTLERRAVRELASLIDWRKTKVLLPSAVDRFGLAEALDEAGARVLYGDFIFALGLPIPLYSLSFLQKLAFLLLPLFTRLPFSVLYPTGKKQEEVREDWRARYYAWADVVAGDWHYVRRHMPKDMRGKTVITNTTTEEDVAFLRERGVRRLVTTTPRLGGRSFGTNVMEAMLVALAGRELGEADYLRYIDQIGLKPQVLELKGQA” the “soluble on expression in E. coli” value was “soluble”.
In the case of “MAKTLKTLYQCTECGGTSPKWQGKCPHCGEWNTLQESLAAPEPKNARFQSWAADTSTVQSLSAVTATEVPRNPTGMGELDRVLGGGLVDGAVILLGGDPGIGKSTLLLQTIAKMAQSRKVLYVSGEESAQQVALRAQRLELPTDGVNLLAEIRMEAIQAALKQHQPEVVVIDSIQTMYSDQITSAPGSVSQVRECAAQLTRMAKQMGIAMILVGHVTKDGAIAGPRVLEHMVDTVLYFEGDQHSNYRMIRAIKNRFGAANELGVFAMTENGLKGVSNPSAIFLASYRDDTPGSCVLVTQEGSRPLLVEIQALVDDAHGFTPKRLTVGLEQNRLAMLLAVLNRHGGIACFDQDVFLNAVGGV”, the “soluble on expression in E. coli” value is reported as “not soluble”.
With “MAKVLVLGGGIGGTEAAIALRKEGFEVSLVSDKPYLYIYPISIWIPTGEAKFEDVIIPLDKFARRWGVNLIIDRVEKIDAQNKKVHLKSGKVLEDFDYLVVALGQTKRKEKGLENTLSICGSPEEALKIRDRLVELIAKGEGKIAFGFGGNPKDKTAVRGRPVFEVLFNVDYHLSRLGIRDRFELTFFAPMPKPGERLGEKALKMLDQMFQKYGIKKITGKKIKEFKENGVLFEDDTFLESDLIIYTPAGWGNPVFADSGFPLNEAGFIKIEETCQVVGYEWAYAIGDSAAIEGPPWTAKQGHLAEVMGHITAHNIAVKEGKKSGELKSYKEHINILCLMDMGWRGGGFAYRSDKRAMLIPIPVLGHIMKKAWGVYYKLYKLGKIPKII” the “soluble on expression in E. coli” value was “not soluble”.
For “MALAVRKQLLYELIDRLDETDHQTAYDFLMYLLDRSRKERMVWERIDETDEEEALTEEERQQLQSDEGYITGGEAKREFGLQVDLP”, the “soluble on expression in E. coli” value was “not soluble”.
For “MALDNRHRLIVGKLAEAFGLPENVIEKTLTQDKQAVNSFFTPAGPPSLVFVYQVKEDKLKDGSVGPVDNKPTLHRIGPHERIHNKGVYFTRLNPKGINEKTLEADMGSGELSGGALENFKAIVSDLYLPIMQEQQQWGKMSTEYLEDFLSSTAKFGSMLTEAVATVSGGVELRMPDPRYIDQYGDLRPAGITQAAGDDDTLQEMEECLTEWCREAELLLNQTNKIKDGEEPGPDTELEYWRTRMSNFNSITEHLKTKECKLVLGICSHAKTKAYLRWRALDVQITDAANESKDNVKYLATLEKSMEPMYQGRVTDITESLPALMTNVRMMYTIARFYSTAEHMTRLFTKITNQLVRRCKEQIMENGKIWDQDKVTLIGNMKVSVELANVYRQQYRLAKETLAAQPKSKQFDFDEQAIFLKFDLFSKRLHKLIDMFTTIHQFSSLEQHTHIEGLDTMLKSLNNIIDDVKRKPYDLLDYSRNAFDRDFLEFNVQINDLELQLQGFVNASFEHITSTEHALSLLAQFQAIMQRETLQQDLENKYMVIFQNYAKDLDAVQKLYEKNKYEPPVPRNAPPVAGNIMWARQLLRRIEAPMQRFAQNKNLLAAKESKKIIKTYNKVAKALIEFETLWHQAWIKSIEQCKAGLAAPLLVQHPDTGKILVNFDKEIMQLVREAKYMQRFNIAVPESAQMVLLQEEKFKFYHNQLTHLVREYEHVLGRVAPTIKPLLRPHLDDMERKIAPGFAVLTWTSLNIDGYLHRFKQGLARLEELVRKVVDLTENRVDSNLGAISSTLLVELPTDRSFTYEEFVSTQNRFQKKQAELLAIRNEEVRRAIEDLLTLVRNYPRENTEDVLDEKEVSLFVRHYSKNMYNAIMQCTLNSLQAMKRRLGSKTTTGIFFMERPFFDVDVELKVPSVCMNPTLEEIQAAINQCAKKVLTISKQLPAWGMDNVATYHEMIAGDKEVVKAVLRLTGSVEGIKTQVGEYIRTFDKYDFLWKEDLQAAYDHFMRSNPTLEAFEAELKKYMAIETEVTMINGVNNIGALSLETMPLKNSLKAEAVSWKTQFAQNLHKQCSDDLKAFDNYIRDTNSKFHRKIEDLEDVRNVMAVLKEVREKESEIDNLIGPIEEMYGLLMRYEVRVPKEETTMVSDLRYGWKKLKKVATEVSDNLTRLQVGFKRELIKEVKTFVVDAQMFRKDWEANGPMVPGLDPQEAVDRLRKFQQMFEVRKRKWENYSSGEELFGLPVTQYPELEQTEKEIQMLDRLYSLYVAVITTIKGYGDYFWVDVVEKIDEMGEQVQQYQNQSKKLPKALRDWPAYNACRKTIDDFLEMLPLFQALTHKSMRERHWKEVMRVTGHELNLAEDHFKLQHLLDCNVLRYREDIEDLTGAAVKEEIIEVKLNQLKADWATANLAFAEYKNRGPVILKPSDTSELMEKLEESQMTLGSMATNRYSAPFRDEVQAWSIKLSTVSEIIEQWLMVQSMWQYMEAVF”, the “soluble on expression in E. coli” value was “not soluble”.
With “MALIRATLPVVEPGRTEIHLPHWDGIEQQHGFIHGGVVGMIADSAAGYAAMTLVPAEASVLTVEYKMNLMAPAEGERLIARGEVVRAGRTLIVTRAEVLALRDGAERLCALMQQTIMVMHARPEKLDAPPAALEHHHHHH” the “soluble on expression in E. coli” value was “not soluble”.
In the case of “MALIVQKFGGTSVGTVERIQAVAQRIKRTVQGGNSLVVVVSAMGKSTDVLVDLAQQISPNPCRREMDMLLSTGEQVSIALLSLALQEIDQPAISLTGAQVGIVTEAEHSRARILEIRPDRLEHHLREGKVVVVAGFQGISSVEHLEITTLGRGGSDTSAVALAAALKADFCEIYTDVPGILTTDPRLVPEAQLMAEITCDEMLELASLGAKVLHPRAVEIARNYGIPLVVRSSWSDEPGTKVVAPPVQNRSLVGLEIAKAVDGVEYDADQAKVALLRVPDRPGVASKLFRDIAQQQVDIDLIIQSIHDGNSNDIAFTVVKDLLNTAEAVTSAIAPALRSYPEADQEAEIIVEKGIAKIAIAGAGMIGRPGIAAKMFKTLADVGVNIEMISTSEVKVSCVIDQRDADRAIAALSNAFGVTLSPPKNQTDTSHLPAVRGVALDQDQAQIAIRHVPDRPGMAAQLFTALAEANISVDMIIQSQRCRINQGTPCRDIAFMVAEGDSSQAEAILQPLIKDWLDAAIVVNKAIAKVSIVGSGMIGHPGVAAHFFAALAQENINIEMIATSEIKISCVVPQDRGVDALKAAHSAFNLAGTKTVTVPA”, the “soluble on expression in E. coli” value is reported as “soluble”.
For “MALLILFFLLGLSFSLEVFSEKLEIKENEIIAEGDAEAYYKNYYIKAKKIKLLRDKDEVYAYEDVYIKNLKTGFEIRGSFAYVNMKKNKGYFLNAKGKFREFNFEAKKIEQLDKERFKVYEATVTTCPLDDKELYLCIFRANITKERALIFHNRLKFFKVPIFYLPVYLIPLGGRKTGFLMPTIGSSTYSSFIYIQPFFWAISRDKDMTITADYRKDQMKGLSLEYRQAFDEESDLITQFSLYKEDKKKGDWWKGREMYRENRFRIFMKYRKKPFKIGVEELSDPYYYEDISFKQEEITKPYTKTYLIYEKETKNYLFYFQTVRYRDLTEEKNNAVNLLPEASFHLKPFYYKGFNFSLDSSFTNFYRNYDGSFMRISLEPTVGKYFELFKVSNYSSLTLINRYYPDSEEDKIVSTFRFRHSVPQYFSLSYGGFKFKNFLEGLYTFSPKDYEVQIFDYQDELNEENNFQFTLVGNLYKNRKLMDYFLNTGYNLLGSYTFPTDGKKIDKKLLPLYYNVSVYPVENVRFWQDAVYDFNLGVFARNVIGTDISWKNFSVGISNSVYKNSEKKVTTDQIALNLKYSGDKFFSGISLNYDRLVDKETYRNVYVGVKGKCWSLVLDYKRNYYRNRDEYVDQVFLRFNLFFKEEIEIPLRR”, the “soluble on expression in E. coli” value was “not soluble”.
With “MALNLKQRLEQKFEEEIRFFKGMVSQPKKVGAIVPTSSITAKKMASVINPHSGLPVLELGPGTGVITKAILARGIKPESLTAIEYSTDFYNQLLRSYPGVNFVNGDAFDLDATLGEHKGQMFDSVISAVPMLNFPMAARIKLLDELLKRVPHGRPVVQISYGPISPIVAQPHLYHIRHFDFIVRNIPPAQLWTYTRALEHHHHHH” the “soluble on expression in E. coli” value was “not soluble”.
In the case of “MALQNISQNDFALHVQKAEQKSFMQTLEMAKLLSKRGFTLNYIAWLENGTIEISAILYSMPMTGGRYFEINCGPVVTRDKHLTDFYRELKDYVKEKGALELVIKPYDTYQTFDGDGQATSAEKKELISQLTNLGYHFDGLQRDYPNGEPDWHYVKDLSDISEQTLLKSFSKKGRPLVKKAKTFGTKLRRLNRDELNLFKEITSATSDRREYSDKSLDYYQDFYDSFGNNAEFMIASLNFENYLSHLQRDQNKLGNKIAKLQADLEKNPHSEKKQNQLRELSSQFDTFTTRQEEAQKFITKYGKKDVILAGSLFVYTPQEAVYLFSGSYPEFNKFYAPALLQEHVMLEALKRGISFYNLLGITGHFDNSDGVLRFKQNFNGYIVRKMGTFHYYPNPLKYRLLNTIKKILRR”, the “soluble on expression in E. coli” value is reported as “not soluble”.
